According to patent US20230086069A1:

Biological target: human CD19 on cells (CD20+ B cells of human PBMC; Raji lymphoma cells) (human) (UniProt P15391)
Assay: flow cytometry, dose response on human CD20+ lymphocytes

Chain of human CD19 on cells (CD20+ B cells of human PBMC; Raji lymphoma cells) (human) (P15391 20-556): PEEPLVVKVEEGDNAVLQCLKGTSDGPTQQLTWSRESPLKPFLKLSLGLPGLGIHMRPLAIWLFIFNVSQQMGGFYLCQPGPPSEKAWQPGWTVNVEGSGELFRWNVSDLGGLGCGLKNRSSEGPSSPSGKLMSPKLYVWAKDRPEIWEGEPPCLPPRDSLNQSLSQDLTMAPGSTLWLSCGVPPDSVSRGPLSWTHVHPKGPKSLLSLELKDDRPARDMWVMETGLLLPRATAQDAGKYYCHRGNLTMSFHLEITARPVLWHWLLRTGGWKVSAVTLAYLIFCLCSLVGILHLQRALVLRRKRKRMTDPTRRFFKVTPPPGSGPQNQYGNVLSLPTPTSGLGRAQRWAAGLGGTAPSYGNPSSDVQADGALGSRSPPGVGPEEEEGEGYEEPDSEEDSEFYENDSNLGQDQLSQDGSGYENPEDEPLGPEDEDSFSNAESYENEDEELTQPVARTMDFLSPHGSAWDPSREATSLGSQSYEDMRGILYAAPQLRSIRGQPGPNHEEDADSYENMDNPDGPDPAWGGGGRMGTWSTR

Substance | EC50 [µg/mL]
4G7 (mouse anti-human CD19 antibody) | 0.549
HIB19 (mouse anti-human CD19 antibody) | 0.0544
SJ25C (mouse anti-human CD19 antibody) | 0.209
